Here are results for eleven molecules from patent publication US20230220073A1 (UCL BUSINESS, published 2023).

In general, Kd refers to the free concentration of one partner at which half of the binding sites on the other are occupied at equilibrium, for simple one-to-one binding. Low readings indicate higher affinity, high ones lower affinity. For orientation: koff means the first-order rate constant of dissociation. The kon is the rate constant with which the complex forms. Read a high kon as fast association.

Residue numbers refer to the chain shown, from its start.

B1: Clone G3 chimeric ROR1 antibody (antibody, V domains shown)
VH: EVQLQESGPGLVKPAQSLSLTCSVTGYSITNMYRWNWIRKFPGNKLEWMGYINTAGSTDYSPSLRGRVSITGDTSKNQFFLHLTSVTTEDTATYYCAGFITNPFDFWGQGVMVTVSS
VL: DVVMTQTPVSLPVSLGGQVSISCRSSQSLEHSNGDTFLHWYLQKPGQSPRLLIYRVSNRFSGVPDRFSGSGSGTDFTLKISRIEPEDLGDYYCLQSTHFPNTFGAGTKLELK
B2: Clone Pi chimeric ROR1 antibody (antibody, V domains shown)
VH: EVQLVESGGGLVQPGRSLTLSCSASGFTFRDYNMAWVRQAPRKGLEWVATISFDDYNTYYRDSVKGRFTISRDDAKSTLYLQMDSLRSEDTATYYCARPGTYWGQGTLVTVSS
VL: DIQLTQSPSSLSASLGDRVSLTCQSSQGIGKYLSWFQHKPGKPPKPVINYATNLADGVPSRFSGRRSGSDFSLTISSLESEDTAIYYCLQFDDFRWTVGGGTKLELK
B3: Clone B chimeric ROR1 antibody (antibody, V domains shown)
VH: DVQLEESGGGLVRPGRSLKLSCADSGVNFSNRGMAWVRQAPTKGLEWVATISYDGRIIYYRDSVKGRFSISRENAKSTLYLQMDSLRSEDTATYYCARHPIAADWYFDFWGPGTMVTVSS
VL: DIRMTQSPASLSASLGETVTIECLTSEDIYSDLAWFQQKPGKSPQLLIYDANSLQNGVPSRFGGCGSGTQYSLQISSLQSEDVATYFCQQYKNYPPTFGGGTKLVLK
notes: also called B5
B4: Clone J chimeric ROR1 antibody (antibody, V domains shown)
VH: DVKLVESGGGLLKPGGSLKLSCVASGFSFSKYWMHWVRQAPGQGLEWIAEIEYDGTETNYAPSIKDRFTISRDNAKNTLYLQMSNVRFEDAATYFCTTEEMHTTDYYYGFAYWGQGTLVTVSS
VL: DIVLTQSPALAVSVGQRATISCRASQSVSISRYDFMHWYQQKPGQQPKLLIYRASNLASGIPARFSGSGSGTDFTLTINPVQADDIATYYCQQNRESPRTFGGGTKLELK
notes: also called J6
B5: Clone E7 chimeric ROR1 antibody (antibody, V domains shown)
VH: GKLVESGGGLLKPGGSLKLSCVASGFTFDKYWMHWVRQAPGKGLEWIAEIEYDGTETNYAPSIKDRFTISRDNAKNTLYLQMSNVRSEDAATYFCTTEEMYTTDYYYGFAYWGQGTLVTVSS
VL: B4 VL with D34N
B6: Clone O chimeric ROR1 antibody (antibody, V domains shown)
VH: QVRLLQSGAALVKPGASVKMSCKASGYTFTDYWMSWVKQSHGKSLEWIGEIYPNSGATNFNEKFKDKATLTVDRSTSTAYMELSRLTSEDSAIYYCARGFPNNYLSWFAYWGQGTLVTVSS
VL: DIVLTQSPALAVSLEQRVTIACKTSQNVDNHGISYMHWYQQKSGQEPKLLIYEGSNLAVGIPARFSGSGSGTDFTLTIDPVEADDIETYYCQQSKDDPRTFGGGTKLELK
B7: Clone I chimeric ROR1 antibody (antibody, V domains shown)
VH: EVQLVESGGGSVQPGRSLKLSCAASGFTFSDYNMAWVRQAPKKGPEWVATITYDVHNAYYRDSVKGRFTISRDDAKSTLYLQMDSLRSEDTATYFCARPGAYWGQGTLVTVSS
VL: DIQLTQSPSSMSASLGDRVSLTCQSSQGIGKYLSWYQHKPGKPPKAMIYYATKLADGVPSRFSGSRSGSDFSLTISSLESEDIAIYYCLQFDDYPWTFGGGTKLELK
B8: Clone G5 chimeric ROR1 antibody (antibody, V domains shown)
VH: EVQVVESGGGLVQPGRSLKLSCVPSGFTFNNYWMTWIRQAPGKAPEWVASISNTGGSTFYPDSVRGRFSISRDNTKGTLYLHMTSLRSEDTATYYCIRNMDAWGQGTSVTVSS
VL: DIQLTQSPSTLSASLGERVTISCRASQSISNSLNWYQQKPDGTVKRLIYSTSTLESGVPSRFSGSGSGTDFSLSISSLESEDFAMYYCLQFATYPQVTFGSGTKLEIK
B9: R12 (previously published ROR1 antibody) (antibody, V domains shown)
VH: QEQLVESGGRLVTPGGSLTLSCKASGFDFSAYYMSWVRQAPGKGLEWIATIYPSSGKTYYATWVNGRFTISSDNAQNTVDLQMNSLTAADRATYFCARDSYADDGALFNIWGPGTLVTISS
VL: ELVLTQSPSVSAALGSPAKITCTLSSAHKTDTIDWYQQLQGEAPRYLMQVQSDGSYTKRPGVPDRFSGSSSGADRYLIIPSVQADDEADYYCGADYIGGYVFGGGTQLTVTG
B10: 4a5 (previously published ROR1 antibody) (antibody, V domains shown)
VH: EVKLVESGGGLVKPGGSLKLSCAASGFTFSSYAMSWVRQIPEKRLEWVASISRGGTTYYPDSVKGRFTISRDNVRNILYLQMSSLRSEDTAMYYCGRYDYDGYYAMDYWGQGTSVTVSS
VL: DIKMTQSPSSMYASLGERVTITCKASPDINSYLSWFQQKPGKSPKTLIYRANRLVDGVPSRFSGGGSGQDYSLTINSLEYEDMGIYYCLQYDEFPYTFGGGTKLEMK
B11: D10 (previously published ROR1 antibody, the prototype of Cirmtuzumab) (antibody, V domains shown)
VH: QVQLKESGPGLVAPSQTLSITCTVSGFSLTSYGVHWVRQPPGKGLEWLGVIWAGGFTNYNSALKSRLSISKDNSKSQVLLKMTSLQTDDTAMYYCARRGSSYSMDYWGQGTSVIVSS
VL: EIVLSQSPAITAASLGQKVTITCSASSNVSYIHWYQQRSGTSPRPWIYEISKLASGVPVRFSGSGSGTSYSLTISSMEAEDAAIYYCQQWNYPLITFGSGTKLEIQ

T4 sequence (Q01973 165-299): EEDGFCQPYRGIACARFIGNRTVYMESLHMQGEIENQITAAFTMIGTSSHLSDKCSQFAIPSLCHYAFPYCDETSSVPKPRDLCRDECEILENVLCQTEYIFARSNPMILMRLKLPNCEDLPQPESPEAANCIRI
T2 sequence (Q01973 312-391 limits assumed): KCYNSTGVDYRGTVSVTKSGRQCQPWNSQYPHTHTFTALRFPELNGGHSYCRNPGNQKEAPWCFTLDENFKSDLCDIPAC

The target of one assay is T1, Histidine-tagged ROR1 protein (extracellular region) (UniProt Q01973 30-406).
T1 construct: extracellular domain; also called extracellular portion of ROR1 bearing a Histidine tag; not shown: Histidine tag
T1 sequence (Q01973 30-406): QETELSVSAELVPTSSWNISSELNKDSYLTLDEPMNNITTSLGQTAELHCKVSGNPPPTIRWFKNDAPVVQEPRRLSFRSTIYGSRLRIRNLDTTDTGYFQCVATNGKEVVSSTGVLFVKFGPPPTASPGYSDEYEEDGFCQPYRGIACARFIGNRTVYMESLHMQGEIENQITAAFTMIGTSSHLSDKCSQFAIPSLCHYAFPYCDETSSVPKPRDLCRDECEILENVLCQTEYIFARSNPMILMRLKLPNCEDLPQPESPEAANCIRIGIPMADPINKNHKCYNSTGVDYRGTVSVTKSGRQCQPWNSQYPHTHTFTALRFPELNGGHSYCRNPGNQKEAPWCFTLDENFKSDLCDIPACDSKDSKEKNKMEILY
The assay is described as follows: SPR, Biacore X100; antibody captured by anti-human IgG1 on CM5 chip, His-tagged ROR1 extracellular portion injected at 1.5-100 nM. Here is the method: FIG. 3: KD determination by surface plasmon resonance. Sensorgrams obtained using a Biacore X100 instrument are shown. Briefly, ROR1 antibodies were immobilized using a CM5 chip and seven different concentrations of the Histidine-tagged ROR1 protein (extracellular region) were injected. Concentrations ranged from […].
We undertook surface plasmon resonance evaluation using a Biacore X100 instrument. ROR1 chimeric antibodies were immobilised using an anti-human IgG1 antibody capture kit and a CM5 sensor chip. Seven different concentrations, ranging from 1.5-100 nM, of the extracellular portion of ROR1 bearing a Histidine tag were then injected.
For orientation: SPR reads the build-up and loss of mass on a sensor chip optically.
B1 displayed a Kd of 2.45 nM, a koff of 0.000266 s⁻¹ and a kon of 109000 M⁻¹ s⁻¹.
The like results for B2 were, in that order, 1.98 nM, 0.000349 s⁻¹ and 176000 M⁻¹ s⁻¹.
Turning to B3, binding was characterised by a dissociation constant (Kd) of 1.5 nM, the koff came to 0.000698 s⁻¹ and the kon worked out at 464000 M⁻¹ s⁻¹.
In turn, B4 returned a Kd of 3.35 nM, a koff of 0.000835 s⁻¹ and a kon of 249000 M⁻¹ s⁻¹.
For B5, binding was put at a Kd of 2.04 nM, the koff stood at 0.000849 s⁻¹ and the kon is 417000 M⁻¹ s⁻¹.
The like results for B6 were, in that order, 3.5 nM, 0.000607 s⁻¹ and 174000 M⁻¹ s⁻¹.
B7 showed a Kd of 2.44 nM, a koff of 0.00051 s⁻¹ and an association rate constant (kon) of 209000 M⁻¹ s⁻¹.
For B8 the same measures were 2.61 nM, 0.000416 s⁻¹ and 159000 M⁻¹ s⁻¹.

The next assay concerns the target T2, Kringle (Kg) (human, UniProt Q01973).
T2 construct: also called ROR1 Kringle domain alone, on transduced SUP-T1 cells
The assay is described as follows: flow cytometry, transduced SUP-T1 cells, anti-human Fc-Dylight647. Here is the method:
(§1) FIG. 1A-FIG. 1C: Identification of ROR1 binding domain: FIG. 1A: SUP-T1 cells were transduced with retroviral vectors containing either the full extracellular portion of ROR1 or only one or two extracellular domains. Non-transduced SUP-T1 (SUP-T1 NT) cells served as negative control. FIG. 1B: All 12 chimeric antibodies and FIG. 1C all 10 positive clones in scFv format were incubated with SUP-T1 NT and the new stable cell lines at 4° C. for 30 min. Cells were washed and stained with a secondary antibody (anti-human Fc-Dylight647), which was used as negative control. eROR1=extracellular ROR1, Ig-like=Immunoglobulin-like domain, Fz=Frizzled domain, Kg=Kringle domain.
On the technique in general: Flow cytometry measures light scatter and fluorescence of single cells or particles in a stream.
For B1, the binding result is listed as “no binding”.
As for B2, the binding result is recorded as “no binding”.
With B3, the binding result was “no binding”.
On the same count and under the same terms, next, B4: “no binding”; B5: “no binding”; B6: “no binding”.
The same measure, in the same setting: next, B7: “no binding”; B8: “no binding”.

For the next assay, the target named is T3, Fz+Kg (human, UniProt Q01973).
T3 construct: also called ROR1 Frizzled+Kringle domains, on transduced SUP-T1 cells
T3 sequence (Q01973 165-391 limits assumed): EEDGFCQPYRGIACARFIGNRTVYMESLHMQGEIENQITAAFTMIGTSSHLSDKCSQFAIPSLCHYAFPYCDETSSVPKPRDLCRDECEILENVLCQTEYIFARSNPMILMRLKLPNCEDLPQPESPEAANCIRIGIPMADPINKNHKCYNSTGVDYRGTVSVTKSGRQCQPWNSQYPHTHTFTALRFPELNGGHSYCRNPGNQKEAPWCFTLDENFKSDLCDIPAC
The description is as above. Here is the method:
as §1
As to B1, the binding result is given as “no binding”.
As for B2, the binding result is given as “no binding”.
Regarding B3, the binding result was “no binding”.
The same measure, in the same setting: next, B4: “no binding”; B5: “no binding”; B6: “no binding”.
For B7, the binding result is on record as “no binding”.
Same read-out and setting: next, B8: “no binding”.

Another assay has as its target T4, ROR1 Frizzled domain alone, on transduced SUP-T1 cells (human, UniProt Q01973 165-299).
T4 construct: domain: Fz; also called Fz; ROR1-Fz domain
The description is as above. On the procedure: as §1
Take B1: the binding result was “no binding”.
Still for that read-out and setting: next, B2: “no binding”; B3: “no binding”.
Still for that read-out and setting: next, B4: “no binding”; B5: “no binding”.
Still for that read-out and setting: with B6 the entry was “no binding”.
Consider B7, for which the binding result is on record as “no binding”.
B8: the binding result was “no binding”.

The next assay deals with T5, ROR1, full extracellular region, on transduced SUP-T1 cells (UniProt Q01973 30-406).
T5 construct: extracellular domain; also called eROR1; extracellular ROR1
T5 sequence (Q01973 30-406): as the sequence (Q01973 30-406) above
The assay is described as follows: flow cytometry, ROR1-transduced cells, single staining; Q1 = ahFc+ only; amFc+ahFc alone Q1 0.060. An excerpt: FIG. 7A-FIG. 7C: Competition assay by flow cytometry. Clone A (SA1) in murine IgG2a, k (mSA1) along with other ROR1 MAbs in human IgG1, k-including previously published 4a5, D10 and R12 clones—were used for staining ROR1-transduced cells. MAb staining was done as FIG. 7A-FIG. 7B: single agents or FIG. 7C: in combination with clone A (mSA1). Anti-human IgG (450) and anti-mouse IgG (DyLight649) were used as secondary antibodies. Combined staining using clones F and mSA1 acted as negative control for overlapping epitopes.
In FIG. 7C, three different columns are presented. Dot plots on the first column correspond to ROR1 binding assessed when SUP-T1 ROR1 cells were stained with clone A (SA1) (mIgG) in the first instance. After a washing step, cells were stained with a competitor antibody (hIgG), followed by another washing step. Both antibodies were then detected by a third staining step using the appropriate secondary antibodies. In the second column, a similar approach was taken when staining these cells, except that this time it was the antibody in hIgG1, k format the one used for the first staining step, followed by clone A (SA1) staining. On the third column, both antibodies were used at the same time.
For B1, the Q1 quadrant figure is 96.1.
Still for that read-out and setting: next, B8: 96.7.

The target in the next assay is T5, ROR1, full extracellular region, on …. Nature of the assay: flow cytometry, ROR1-transduced cells, single staining; Q1 = ahFc+ only; amFc+ahFc alone Q1 0.060 (FIG. 7A).
With B9, the Q1 quadrant figure was 96.9.
Still for that read-out and setting: with B10 the figure was 96.9; with B11, 84.3.
